Source: patent publication US20090170194A1 (GOVERNORS OF THE UNIVERSITY OF ALBERTA, published 2009)
Where a chain is given by its changes, count along the chain named. Names and notes keep the numbering of the source.

Tests used:
[1] = molecular target: the molecule itself; test: self-association (homodimer); gel filtration chromatography (FIG. 4)
Excerpt: (§1) FIG. 4: Characterization of mTFP1 by Gel Filtration Chromatography. Gel filtration chromatography elution profile with detection at either 450 nm or 550 nm. The upper profile is a co-injection of dTFP0.2 and mCherry (Shaner, 2004) (a red monomer), the middle profile is dTomato (Shaner, 2004) (a red dimer) and mTFP1, and the lower profile is mTFP1 alone. The small 450 nm peak at the dimer elution volume is due to the weak absorbance of dTomato at this wavelength.
(§2) The non-oligomeric structure of mTFP variants was determined by gel filtration chromatography on a HiLoad 16/60 Superdex 75 pg gel filtration column. Samples of the dimeric dTomato and the monomeric mCherry proteins (Shaner, 2004) were expressed and purified as described above and used as size standards. The AKTA basic liquid chromatography system (GE Healthcare) can monitor multiple wavelengths simultaneously. Purified TFP variants were mixed with either dTomato or mcherry and their respective elution profiles monitored separately at 450 nm and 550 nm, respectively.

[2] = molecular target: the molecule itself; test: gel filtration chromatography (self-association)
Description: as §2

[3] = molecular target: the molecule itself; test: gel filtration chromatography with dTomato (dimer) and mCherry (monomer) as size standards (self-association)
Excerpt: as §1, §2

B1: dTFP0.2 (other)
chain: MVSKGEETTMGVIKPDMKIKLKMEGNVNGHAFVIEGEGEGKPYDGTNTVNLEVKEGAPLPFSYDILSNAFQYGNRAFTKYPDDIANYFKQSFPEGYSWERTMTFEDKGIVKVKSDISMEEDSFIYEIRLKGKNFPPNGPVMQKKTLKWEPSTEILYVRDGVLVGDISHSLLLEGGGHYRCDFKTIYKAKKVVKLPDYHFVDHRIEILNHDKDYNKVTLYENAVARYSLLPPQAGMDELYK
notes: dTFP0.1 with D81N and S226P; Vector His tag probably present; also called dTFP0.20
**Q.** Does B1 bind [1]?
**A.** binds

B2: mTFP0.3 (other)
chain: B1 chain with S167K, S169K
notes: dTFP0.2 with S162K and S164K; reported as a monomer; Substitution positions follow the DsRed-consistent numbering; Vector His tag probably present
**Q.** Does B2 bind [2]?
**A.** no binding

B3: mTFP1 (other)
chain: MVSKGEETTMGVIKPDMKIKLKMEGNVNGHAFVIEGEGEGKPYDGTNTINLEVKEGAPLPFSYDILTTAFAYGNRAFTKYPDDIPNYFKQSFPEGYSWERTMTFEDKGIVKVKSDISMEEDSFIYEIHLKGENFPPNGPVMQKKTTGWDASTERMYVRDGVLKGDVKHKLLLEGGGHHRVDFKTIYRAKKAVKLPDYHFVDHRIEILNHDKDYNKVTVYESAVARNSTDGMDELYK
notes: Engineered monomeric teal fluorescent protein derived from Clavularia cFP484; Expressed from pBAD/HisB and purified on Ni-NTA; also called mTFP1.0
**Q.** Does B3 bind [3]?
**A.** no binding
